Test results reported in US20090111104A1, “Method for Monitoring Hydrolytic Activity” (Fluorotechnics Pty Limited, priority 2005, published 2009).

Target: T1, BSA (Bos taurus, UniProt P02769)
T1 construct: purchased Sigma-Aldrich A3059
Experiment: Real-time monitoring of BSA proteolysis with different fluorophores in the presence of detergent (Example 7)
Format: biochemical, bovine
Conditions: method of example 7, real-time with fluorophore and SDS
Method: • 1 Trypsin and papain digestion was carried out in bicine buffer at pH 8.4 and pH 7.0, respectively. • 2 BSA was prepared in 10 mg/mL in 100 mM bicine buffer. • 3 One hundred microliter of the BSA sample was used for trypsin and papain digestion.
7.2.2 Real-Time Monitoring of Trypsin Digestion with Fluorophores in the Presence of a Detergent • 1. The reduced and denatured BSA sample was diluted 10-fold in 100 mM bicine buffer (25 μL+225 μL bicine buffer). • 2. One hundred microliter of the sample (step 1) was added to a well in a 96-well microtiter plate. Controls included a bicine-based digestion buffer, a trypsin sample or papain only and an undigested BSA sample (no trypsin or no papain). The assay consists of a 4-well sample set for one fluorophore, e.g. SYPROorange. Three sets of samples were prepared in the same manners for the remaining fluorophores, e.g. Nile red, epicocconone and […]. • 3. SYPROorange stock solution was diluted 5000-fold in the bicine buffer (pH 8.4). Nile red and epicocconone and stock solutions were diluted 100-fold in the 100 mM bicine (pH 8.5). ANS was diluted 100-fold in the bicine buffer (pH 7.0). • 4. […] Fluorescence development was monitored in real time every 2 minutes up to 400 minutes using FluoStar (Ex/Em=485/600±10 for SYPROorange; 540±10/630±10 for epicocconone and Nile red; 355/460 for ANS). […]

T1 sequence (P02769 25-607): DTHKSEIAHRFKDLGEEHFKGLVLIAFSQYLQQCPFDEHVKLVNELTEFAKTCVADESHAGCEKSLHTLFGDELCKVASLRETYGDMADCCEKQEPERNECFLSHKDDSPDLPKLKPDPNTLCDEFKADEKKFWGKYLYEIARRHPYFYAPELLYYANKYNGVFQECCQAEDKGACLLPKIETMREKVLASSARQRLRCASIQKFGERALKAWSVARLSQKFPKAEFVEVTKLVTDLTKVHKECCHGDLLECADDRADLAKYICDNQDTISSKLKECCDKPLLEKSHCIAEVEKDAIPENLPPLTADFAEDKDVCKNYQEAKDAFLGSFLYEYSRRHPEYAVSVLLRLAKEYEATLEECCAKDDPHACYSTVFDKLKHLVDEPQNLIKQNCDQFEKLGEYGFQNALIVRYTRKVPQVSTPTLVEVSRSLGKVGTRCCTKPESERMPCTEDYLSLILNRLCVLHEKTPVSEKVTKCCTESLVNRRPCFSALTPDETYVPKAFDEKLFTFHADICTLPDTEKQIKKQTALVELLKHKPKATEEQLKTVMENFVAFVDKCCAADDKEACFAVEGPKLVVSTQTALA

pseudo-first order rate constant for digestion of BSA: 0.1 to 0.2 min⁻¹
B1: trypsin: Proteomics grade trypsin protease, Sigma-Aldrich T6567 (protein, UniProt P00761 9-231, looked up)
Trypsin: IVGGYTCAANSIPYQVSLNSGSHFCGGSLINSQWVVSAAHCYKSRIQVRLGEHNIDVLEGNEQFINAAKIITHPNFNGNTLDNDIMLIKLSSPATLNSRVATVSLPRSCAAAGTECLISGWGNTKSSGSSYPSLLQCLKAPVLSDSSCKSSYPGQITGNMICVGFLEGGKDSCQGDSGGPVVCNGQLQGIVSWGYGCAQKNKPGVYTKVCNYVNWIQQTIAAN
